Source: patent US20220033515A1

Tests used:
[1] = target: human vascular endothelial growth factor (hVEGF) (human) (UniProt P15692); experiment: blocking ELISA: biotin-VEGF with hIgG, capture on Avastin
hVEGF165 (human) = hVEGF165 (human) (UniProt P15692); experiment: competition ELISA of hIgG, hVEGF165; axis 'Conc (nM)'
hVEGF165 (human), sequence (P15692 other isoform, or with tags, fused parts or gaps limits assumed): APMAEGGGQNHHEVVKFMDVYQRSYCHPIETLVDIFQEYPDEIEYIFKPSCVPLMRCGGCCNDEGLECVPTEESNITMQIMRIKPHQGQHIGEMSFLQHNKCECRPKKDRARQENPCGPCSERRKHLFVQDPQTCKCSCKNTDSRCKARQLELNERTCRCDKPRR

human vascular endothelial growth factor (hVEGF) (human), sequence (P15692 other isoform, or with tags, fused parts or gaps limits assumed): as above

G6 hIgG (antibody)
IC50 (read off the curve) [1]: 3 nM
IC50 (read off the curve) (hVEGF165 (human)): 3 nM
